Tests used:
RadA (Sms) wild type [1] = target: T1, RadA (Sms) wild type (Escherichia coli, UniProt P24554 1-460); assay: EMSA; 1 mM ADP (standard); apparent; Hill coefficient 1.5; 50 mM Tris-HCl pH 7.5, 10 mM MgCl2, 0.1 mM EDTA, 75 mM NaCl, 5 mM DTT, 100 ug/ml BSA, 1 mM nucleotide, 100 fmol DNA, 37 C for 20-30 min; 6% TBE polyacrylamide gel at room temperature; conditions: protein: recombinant; tags: eXact tag cleaved; 2 extra N-terminal residues Thr-Ser remain; chain copies: 6
T1 sequence: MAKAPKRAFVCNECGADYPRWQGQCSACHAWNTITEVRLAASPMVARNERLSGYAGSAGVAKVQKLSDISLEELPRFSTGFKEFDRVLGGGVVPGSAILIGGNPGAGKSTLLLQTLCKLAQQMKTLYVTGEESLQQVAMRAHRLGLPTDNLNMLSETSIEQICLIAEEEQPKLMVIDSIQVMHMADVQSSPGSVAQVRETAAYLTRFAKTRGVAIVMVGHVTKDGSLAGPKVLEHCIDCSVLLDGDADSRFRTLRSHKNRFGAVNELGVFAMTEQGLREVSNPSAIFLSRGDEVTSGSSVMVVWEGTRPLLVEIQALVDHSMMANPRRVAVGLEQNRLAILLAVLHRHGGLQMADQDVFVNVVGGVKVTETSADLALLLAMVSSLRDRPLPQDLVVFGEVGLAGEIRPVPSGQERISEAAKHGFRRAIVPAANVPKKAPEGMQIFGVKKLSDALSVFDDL

RadA (Sms) wild type [2] = target: T1, RadA (Sms) wild type; assay: competition; unlabeled competitor vs labeled poly(dT)30, 1 mM ADP; 50 mM Tris-HCl pH 7.5, 10 mM MgCl2, 0.1 mM EDTA, 75 mM NaCl, 5 mM DTT, 100 ug/ml BSA, 1 mM nucleotide, 100 fmol DNA, 37 C for 20-30 min; 6% TBE polyacrylamide gel at room temperature; conditions: protein: recombinant; tags: eXact tag cleaved; 2 extra N-terminal residues Thr-Ser remain; chain copies: 6

Binder TTTTTTTTTTTTTTTTTTTTTTTTTTTTTT (ssDNA) [poly(dT)30] has a Kd (RadA (Sms) wild type [1]) of 110 ± 14 nM.

AAAAAAAAAAAAAAAAAAAAAAAAAAAAAAAAA (ssDNA) [poly(dA)33]: no binding (RadA (Sms) wild type [2]).
